According to US20250361297A1, “ANTI- SIGLEC-15 BINDING MOLECULES AND METHODS OF USE” (ADAPTAM THERAPEUTICS, S.L., priority 2024, published 2025):

Experiments:
Siglec-15 positive cells = experiment: Internalization assay (Zenon pHrodo iFL Green); assay type: cell-based; settings: kinetics over 1, 2, 4, 16, and 24 hours
Experimental: Internalization assay (Zhenon pHrodo): Sufficient volumes of 4× working solution of anti-Siglec-15 antibodies (10 nM) were prepared in cell culture medium for a total of 25 μL for each well of a 96-well plate. A working solution of Zenon™ pHrodo™ iFL IgG Labeling Reagent was prepared at 30 nM and 25 μL were added to each well. The mix was incubated for 5 minutes at room temperature to allow the labeling complexes to form. 5 mL of suspension cells at 2×10^6 cells/mL in cell culture medium were prepared and 50 μL of cells were added to each well of the 96-well plate containing the mix of anti-Siglec-15 antibody and the Zenon™ labeling reagent. Cells were incubated with the labeling complex for different timepoints (1-24 hours) under standard cell culture conditions. Fluorescence was analyzed by flow cytometry.

mouse Siglec-15 = target: T1, mouse Siglec-15 (Mus musculus, UniProt A7E1W8); experiment: Titration on HEK293T cells expressing mouse Siglec-15 (flow cytometry); assay type: binding; settings: titrated from 10 μg/ml
T1 construct: HEK293T cells were genetically engineered to express full-length mouse Siglec-15; expressed in transfected cells; host or cells: HEK293T
T1 sequence (A7E1W8 24-342): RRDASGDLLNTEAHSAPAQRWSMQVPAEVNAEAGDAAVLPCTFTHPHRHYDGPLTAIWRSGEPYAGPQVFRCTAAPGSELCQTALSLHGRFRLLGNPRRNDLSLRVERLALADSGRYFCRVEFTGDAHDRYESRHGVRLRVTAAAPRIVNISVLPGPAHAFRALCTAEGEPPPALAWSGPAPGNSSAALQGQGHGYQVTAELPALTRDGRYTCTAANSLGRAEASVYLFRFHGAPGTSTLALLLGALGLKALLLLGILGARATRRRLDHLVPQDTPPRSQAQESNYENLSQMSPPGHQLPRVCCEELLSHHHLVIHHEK
Experimental: Cross-species reactivity and domain-specific binding of the full-length anti-Siglec-15 antibody candidates were evaluated. The antibodies were titrated against HEK293T cells expressing mouse Siglec-15 or HEK293T cells expressing a truncated human Siglec-15 consisting solely of domain 2 (FIG. 9). […] However, the binding to mouse Siglec-15 was evident for all tested antibodies, with EC50 values calculated to rank the affinity of the antibodies.
(§1) For the ELISA, antigens were immobilized on high-binding plates, and the full-length IgG1 anti-Siglec-15 antibodies were titrated beginning at a concentration of 10 μg/ml. After washing, an anti-human IgG Fab-specific HRP-conjugated secondary antibody was applied for detection. […] Optical densities were measured to generate binding curves from which EC50 values were derived. […] Flow cytometric analysis was conducted, and fluorescence intensity was used to calculate EC50 values, providing a quantitative assessment of the antibodies' cell surface binding efficacy. […] Antibodies were titrated starting at a concentration of 10 μg/ml and detected with an anti-human Fc-specific secondary antibody to detect bound primary antibodies. The half-maximal effective concentration (EC50) was calculated for each antibody to determine its binding affinity to mouse Siglec-15. Results were analyzed and ranked based on the EC50 values.

human Siglec-15 [1] = target: T2, human Siglec-15 (Homo sapiens, UniProt Q6ZMC9); experiment: Titration of full-length IgG1 antibodies on human Siglec-15 (ELISA / flow cytometry on MOLM-13 Siglec-15 cells); assay type: binding; settings: full-length human IgG1, titrated from 10 μg/ml
T2 construct: expressed in transfected cells
T2 sequence (Q6ZMC9 20-328): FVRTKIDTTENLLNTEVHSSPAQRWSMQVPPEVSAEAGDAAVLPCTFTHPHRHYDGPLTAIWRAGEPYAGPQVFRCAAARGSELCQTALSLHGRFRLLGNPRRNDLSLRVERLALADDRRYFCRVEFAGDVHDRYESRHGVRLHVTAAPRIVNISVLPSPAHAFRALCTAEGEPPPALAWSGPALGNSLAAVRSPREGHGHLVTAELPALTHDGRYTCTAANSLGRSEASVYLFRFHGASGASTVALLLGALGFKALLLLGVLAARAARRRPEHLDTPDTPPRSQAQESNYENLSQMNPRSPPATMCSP
Experimental: The binding efficacy of the converted full-length IgG1 anti-Siglec-15 antibodies was then evaluated using both ELISA and flow cytometry. By immobilizing the antigen and titrating the antibodies starting at a concentration of 10 μg/ml, binding kinetics were determined via ELISA, using an anti-human IgG Fab-specific secondary antibody for detection. Palivizumab served as the negative control in these assays (FIG. 8A). Complementary to the ELISA, flow cytometry assays provided insight into the binding behavior of the antibodies on the cell surface. […] From these assays, EC50 values were calculated, offering a quantitative measure of the antibodies' affinity towards Siglec-15, and leading to the selection of 7 unique hits (Table 10).
as §1, with “μg/ml.” for “μg/ml. After washing, an anti-human IgG Fab-specific HRP-conjugated secondary antibody was applied for detection.”, “The half-maximal effective concentration (EC50) was calculated for each antibody to determine its binding affinity to mouse Siglec-15. Results were analyzed and ranked based on the EC50 values.” left out

human Siglec-15 [2] = target: T2, human Siglec-15; experiment: Competitive flow cytometry assay with benchmark antibodies; assay type: binding
Experimental: Epitope mapping assay by Flow cytometry: Competition with benchmark mouse IgG antibodies: 50,000 cells/well of THP-1 S15 OE were added to a round bottom 96 well plate, and centrifuged at 450×G for 5 minutes, and the supernatant was discarded. Human anti-siglec-15 IgG antibodies (starting at 198 nM, 3-fold serial dilution in staining buffer) were added to 100 μl of staining buffer and cells were resuspended with it and incubated for 40 minutes on ice. 100 μl of staining buffer were added to wells, centrifuged at 450× G for 5 minutes and the supernatants discarded. Benchmark mouse IgG antibodies were diluted at 33.3 nM and cells resuspended in 100 μl of the mix and incubated for 40 minutes on ice. Then, 100 μl of staining buffer were added to wells, centrifuged at 450×G for 5 minutes and the supernatants discarded. The secondary antibody anti-mouse IgG-Alexa647 was prepared at 1:200 dilution in 100 μl of staining buffer and added to each well, and cells were incubated for 40 minutes on ice. Cells were washed with 100 μl of staining buffer and centrifuged at 450×G for 5 minutes to discard the supernatant. Cells were resuspended in 150 μl of staining buffer and acquired in a flow cytometer.

B1: ZLA-1243-E01: fully human anti-Siglec-15 IgG1, silenced Fc, phage display; VH SEQ ID NO: 34, VL SEQ ID NO: 35 (antibody, V domains shown)
VH: QVQLVQSGGGLVQPGRSLRLSCAASGFTFDDYAMHWVRQAPGKGLEWVSGISWNSGSIGYADSVKGRFTISRDNAKNSLYLQMNSLRAEDTALYYCAKGLWPSYDLDAFDIWGQGTMVTVSS
VL: QSALTQPASVSGSPGQSITLSCTGTSSDVGAYNFVSWYQQHPGTAPKLMIYEVSNRPSGVSDRFSGSKSGNTASLTISGLQAEDEADYYCSSYTSTIPPFVFGTGTKVTVL
modifications: IgG1 silenced Fc; ZLA-1243-E01 VH; ZLA-1243-E01 VL
- internalization, fold increase over isotype control (Siglec-15 positive cells): approximately 6 fold
- EC50 (ng/mL) mS15 (mouse Siglec-15): 84.88 ng/mL
- EC50 (ng/mL) hS15 (human Siglec-15 [1]): 174.3 ng/mL
- inhibition of binding of A2A5C7E8 (benchmark 2) (human Siglec-15 [2]; across all concentrations (FIG. 18D)): outperformed 5G12
- inhibition of binding of 5G12 (benchmark 1) (human Siglec-15 [2]; at concentrations above 10 nM (FIG. 18C)): outperformed A2A5C7E8
